# Test results published in patent US20070032419A1 (ONCOSCIENCE, published 2007).
# Where a chain is given by its changes, count along the chain named.
# T1: tTF-GCNGRCG fusion polypeptide
# T1 chain: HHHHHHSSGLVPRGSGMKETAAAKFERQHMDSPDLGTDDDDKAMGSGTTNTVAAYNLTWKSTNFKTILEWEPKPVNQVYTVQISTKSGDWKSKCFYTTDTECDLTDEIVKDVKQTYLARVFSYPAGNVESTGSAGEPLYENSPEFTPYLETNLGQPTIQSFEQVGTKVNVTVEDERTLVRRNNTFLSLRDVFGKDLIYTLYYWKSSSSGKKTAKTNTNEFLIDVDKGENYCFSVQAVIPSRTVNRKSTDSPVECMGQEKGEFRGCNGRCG
# T2: tTF-GNGRAHA fusion polypeptide with N-terminal affinity tag
# T2 chain: T1 chain with C265N, N266G, G267R, R268A, C269H, G270A
# T3: tTF-GCNGRCVSGCAGRC fusion polypeptide
# T3 chain: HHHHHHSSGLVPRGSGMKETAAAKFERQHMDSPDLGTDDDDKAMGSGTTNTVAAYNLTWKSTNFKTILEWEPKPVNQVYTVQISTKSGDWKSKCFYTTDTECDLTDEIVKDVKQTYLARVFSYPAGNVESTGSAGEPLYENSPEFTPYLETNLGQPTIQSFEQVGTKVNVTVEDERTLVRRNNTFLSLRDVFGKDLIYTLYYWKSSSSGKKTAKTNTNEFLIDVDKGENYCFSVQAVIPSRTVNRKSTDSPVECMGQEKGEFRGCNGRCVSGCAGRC
# T4: tTF-GALNGRSHAG fusion polypeptide
# T4 chain: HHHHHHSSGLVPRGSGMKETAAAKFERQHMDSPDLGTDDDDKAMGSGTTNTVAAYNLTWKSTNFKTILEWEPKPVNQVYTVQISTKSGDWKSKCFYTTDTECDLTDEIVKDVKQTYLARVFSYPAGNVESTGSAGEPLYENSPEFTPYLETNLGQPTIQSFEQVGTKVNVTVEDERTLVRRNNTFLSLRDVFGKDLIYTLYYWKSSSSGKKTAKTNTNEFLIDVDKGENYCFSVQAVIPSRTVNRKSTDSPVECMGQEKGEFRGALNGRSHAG
# T5: tTF-GCVLNGRMEC fusion polypeptide
# T5 chain: T4 chain with A265C, L266V, N267L, G268N, R269G, S270R, H271M, A272E, G273C
# T6: truncated human tissue factor tTF1-218
# T6 chain: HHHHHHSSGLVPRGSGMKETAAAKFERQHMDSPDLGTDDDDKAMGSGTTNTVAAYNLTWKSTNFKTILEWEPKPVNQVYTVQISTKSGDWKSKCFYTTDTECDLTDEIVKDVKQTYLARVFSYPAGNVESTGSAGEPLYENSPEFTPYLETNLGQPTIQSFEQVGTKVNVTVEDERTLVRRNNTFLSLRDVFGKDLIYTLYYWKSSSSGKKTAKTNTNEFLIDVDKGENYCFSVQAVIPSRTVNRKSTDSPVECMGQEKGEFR
# T7: tTF-GRGDSP fusion polypeptide with N-terminal affinity tag
# T7 chain: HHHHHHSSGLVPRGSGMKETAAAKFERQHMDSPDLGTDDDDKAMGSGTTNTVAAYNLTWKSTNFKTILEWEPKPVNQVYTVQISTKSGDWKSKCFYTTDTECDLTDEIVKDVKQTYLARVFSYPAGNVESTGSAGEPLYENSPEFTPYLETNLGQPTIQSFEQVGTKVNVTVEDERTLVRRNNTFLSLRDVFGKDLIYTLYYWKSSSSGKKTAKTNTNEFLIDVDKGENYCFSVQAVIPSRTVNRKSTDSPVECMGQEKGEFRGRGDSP
# B1: tTF-GRGDSP fusion polypeptide with N-terminal affinity tag (other)
# chain: T7 chain
# notes: It was biotinylated for the FACS assay; also called tTF-RGD
# B2: recombinant factor VIIa (Novo-Nordisk) (protein)
# chain: ANAFLEELRPGSLERECKEEQCSFEEAREIFKDAERTKLFWISYSDGDQCASSPCQNGGSCKDQLQSYICFCLPAFEGRNCETHKDDQLICVNENGGCEQYCSDHTGTKRSCRCHEGYSLLADGVSCTPTVEYPCGKIPILEKRNASKPQGRIVGGKVCPKGECPWQVLLLVNGAQLCGGTLINTIWVVSAAHCFDKIKNWRNLIAVLGEHDLSEHDGDEQSRRVAQVIIPSTYVPGTTNHDIALLRLHQPVVLTDHVVPLCLPERTFSERTLAFVRFSLVSGWGQLLDRGATALELMVLNVPRLMTQDCLQQSRKVGDSPNITEYMFCAGYSDGSKDSCKGDSGGPHATHYRGTWYLTGIVSWGQGCATVGHFGVYTRVSQYIEWLQKLMRSEPRPGVLLRAPFP
# Key:
# [1] = biological target: T8, integrin αvβ3 on cultivated human endothelial cells (human, UniProt P06756 31-1048; P05106 27-788); test: FACS, biotinylated protein (0.1 µM) on human endothelial cells in suspension, streptavidin-phycoerythrin detection; reference tTF
# T8 construct: whole, on cells; The cells express αvβ3 naturally; also called αvβ3 on endothelial cells
# T8 sequence (P06756 31-1048, chain 1 of 2): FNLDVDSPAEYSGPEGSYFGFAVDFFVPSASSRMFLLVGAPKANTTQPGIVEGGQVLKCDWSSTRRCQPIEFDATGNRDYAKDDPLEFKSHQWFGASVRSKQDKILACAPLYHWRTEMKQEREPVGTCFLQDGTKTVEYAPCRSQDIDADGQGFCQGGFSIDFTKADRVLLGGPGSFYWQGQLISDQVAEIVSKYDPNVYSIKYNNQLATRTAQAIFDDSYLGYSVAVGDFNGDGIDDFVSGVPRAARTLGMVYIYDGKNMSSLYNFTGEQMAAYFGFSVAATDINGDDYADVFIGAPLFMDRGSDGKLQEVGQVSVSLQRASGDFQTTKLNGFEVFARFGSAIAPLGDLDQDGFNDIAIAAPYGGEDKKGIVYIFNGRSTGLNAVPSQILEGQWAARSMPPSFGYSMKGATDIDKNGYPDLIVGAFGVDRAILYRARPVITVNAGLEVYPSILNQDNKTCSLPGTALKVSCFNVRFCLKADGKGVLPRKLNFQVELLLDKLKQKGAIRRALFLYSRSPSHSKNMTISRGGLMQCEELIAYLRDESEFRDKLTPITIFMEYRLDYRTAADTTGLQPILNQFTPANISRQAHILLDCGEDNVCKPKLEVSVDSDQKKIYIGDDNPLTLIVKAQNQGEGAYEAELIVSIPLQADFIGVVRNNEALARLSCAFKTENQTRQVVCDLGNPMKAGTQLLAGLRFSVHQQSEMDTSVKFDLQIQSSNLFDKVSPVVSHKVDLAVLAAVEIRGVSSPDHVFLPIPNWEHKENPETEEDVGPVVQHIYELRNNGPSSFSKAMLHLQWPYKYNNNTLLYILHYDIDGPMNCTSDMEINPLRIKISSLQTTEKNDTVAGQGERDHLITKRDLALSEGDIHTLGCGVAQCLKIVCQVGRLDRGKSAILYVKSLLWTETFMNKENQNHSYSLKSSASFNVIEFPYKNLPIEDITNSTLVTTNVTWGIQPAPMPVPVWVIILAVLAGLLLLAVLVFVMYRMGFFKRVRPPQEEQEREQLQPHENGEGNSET
# T8 sequence (P05106 27-788, chain 2 of 2): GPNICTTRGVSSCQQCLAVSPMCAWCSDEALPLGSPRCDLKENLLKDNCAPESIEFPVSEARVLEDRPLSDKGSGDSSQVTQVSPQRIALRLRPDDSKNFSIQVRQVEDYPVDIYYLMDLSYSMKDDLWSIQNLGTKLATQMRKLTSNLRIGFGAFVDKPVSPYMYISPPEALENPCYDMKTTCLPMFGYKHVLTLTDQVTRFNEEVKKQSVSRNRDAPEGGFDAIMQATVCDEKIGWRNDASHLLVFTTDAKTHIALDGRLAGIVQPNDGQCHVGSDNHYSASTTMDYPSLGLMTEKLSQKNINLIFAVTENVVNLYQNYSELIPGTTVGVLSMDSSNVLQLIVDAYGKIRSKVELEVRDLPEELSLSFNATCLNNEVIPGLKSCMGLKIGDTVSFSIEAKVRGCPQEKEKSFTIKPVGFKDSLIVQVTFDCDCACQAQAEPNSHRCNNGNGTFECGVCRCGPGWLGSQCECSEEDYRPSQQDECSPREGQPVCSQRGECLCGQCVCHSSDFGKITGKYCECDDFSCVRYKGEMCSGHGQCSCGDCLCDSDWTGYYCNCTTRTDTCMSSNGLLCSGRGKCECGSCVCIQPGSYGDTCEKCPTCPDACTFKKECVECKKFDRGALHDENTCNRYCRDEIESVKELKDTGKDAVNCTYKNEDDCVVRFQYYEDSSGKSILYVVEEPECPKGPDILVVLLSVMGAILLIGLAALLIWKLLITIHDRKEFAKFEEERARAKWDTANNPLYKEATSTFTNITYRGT
# [2] = biological target: T1, tTF-GCNGRCG fusion polypeptide
# [3] = biological target: T2, tTF-GNGRAHA fusion polypeptide with …
# [4] = biological target: the fusion polypeptides (tTF fusion polypeptides)
# [5] = biological target: T3, tTF-GCNGRCVSGCAGRC fusion polypeptide
# [6] = biological target: T4, tTF-GALNGRSHAG fusion polypeptide
# [7] = biological target: T5, tTF-GCVLNGRMEC fusion polypeptide
# [8] = biological target: T6, truncated human tissue factor tTF1-218
# [9] = biological target: T7, tTF-GRGDSP fusion polypeptide with …
Binder,"fluorescence intensity, fold over tTF [1]",proteolytic activation of FX via FVIIa in the presence of phospholipids (chromogenic FXa assay) [2],proteolytic activation of FX via FVIIa in the presence of phospholipids (chromogenic FXa assay) [3],Michaelis constant (Km) for activation of FX by FVIIa/tTF fusion protein [4],proteolytic activation of FX via FVIIa in the presence of phospholipids (chromogenic FXa assay) [5],proteolytic activation of FX via FVIIa in the presence of phospholipids (chromogenic FXa assay) [6],proteolytic activation of FX via FVIIa in the presence of phospholipids (chromogenic FXa assay) [7],proteolytic activation of FX via FVIIa in the presence of phospholipids (chromogenic FXa assay) [8],proteolytic activation of FX via FVIIa in the presence of phospholipids (chromogenic FXa assay) [9]
B1,8 fold,–,–,–,–,–,–,–,–
B2,–,both tTF and the tTF fusion polypeptides are functionally active under these conditions,both tTF and the tTF fusion polypeptides are functionally active under these conditions,in the range 0.12-1.2 nM,both tTF and the tTF fusion polypeptides are functionally active under these conditions,both tTF and the tTF fusion polypeptides are functionally active under these conditions,both tTF and the tTF fusion polypeptides are functionally active under these conditions,both tTF and the tTF fusion polypeptides are functionally active under these conditions,both tTF and the tTF fusion polypeptides are functionally active under these conditions
